Measured values taken from patent US20170355769A1 (AbbVie / Abbott, published 2017).
Numbering of substitutions follows the chain as printed. Read-outs that look alike come from different tables or passages of the source.

B1: huAb13v1-CZ (antibody, human IgG1, kappa, L234A L235A, V domains shown)
VH: EVQLQESGPGLVKPSETLSLTCAVTGYSITSGYSWHWIRQFPGNGLEWMGYIHSSGSTNYNPSLKSRISISRDTSKNQFFLKLSSVTAADTAVYYCAGYDDYFEYWGQGTTVTVSS
VL: DIQMTQSPSSLSASVGDRVTITCKASQNVGFNVAWYQQKPGKSPKALIYSASYRYSGVPSRFSGSGSGTDFTLTISSLQPEDFAEYFCQQYNWYPFTFGQGTKLEIKR
modifications: synthon CZ on reduced interchain Cys
notes: ADC, DAR 4.0
B2: huAb13v8 (antibody, V domains shown)
VH: B1 VH with T25S, F41P, S69T, F80S, G98R
VL: DIQMTQSPSSLSASVGDRVTITCKASQNVGFNVAWYQQKPGKSPKALIYSASYRYSGVPSRFSGSGSGTDFTLTISSLQPEDFAEYFCQQYNWYPFTFGQGTKLEIK
notes: humanized IgG
B3: huAb13v4 (antibody, V domains shown)
VH: B1 VH with T25S, F41P, N44K, M49I, I68V, S69T, R72V, F80S, G98R
VL: B2 VL with S43A, A46L, E85T
notes: humanized IgG
B4: huAb13v3 (antibody, V domains shown)
VH: B1 VH with T25S, F41P, N44K, M49I, I68V, S69T, R72V, F80S, G98R
VL: B2 VL
notes: humanized IgG
B5: huAb13v5-CZ (antibody, V domains shown)
VH: B1 VH
VL: B2 VL with S43A, A46L, E85T, F87Y
modifications: synthon CZ on reduced interchain Cys
notes: ADC, DAR 3.4
B6: huAb13v6-CZ (antibody, V domains shown)
VH: B1 VH
VL: B2 VL with S43A, A46L, E85T
modifications: synthon CZ on reduced interchain Cys
notes: ADC, DAR 3.6
B7: huAb13v7 (antibody, V domains shown)
VH: B1 VH with T25S, F41P, S69T, F80S, G98R
VL: B2 VL with S43A, A46L, E85T, F87Y
notes: humanized IgG
B8: huAb3v2.2 (antibody, V domains shown)
VH: EVQLVQSGAEVKKPGSSVKVSCKASGYTFSSYWMHWVRQAPGQGLEWIGLIHPWSGSTNYNEMFKNRATLTVDRSTSTAYMELSSLRSEDTAVYYCAGGGRLYFDYWGQGTTVTVSS
VL: DIVMTQSPLSLPVTPGEPASISCRSSQSLVHSNRDTYLRWYLQKPGQSPQLLIYKVSNRFSGVPDRFSGSGSGTDFTLKISRVEAEDVGVYYCSQSTHVPYTFGGGTKVEIK
notes: humanized IgG
B9: huAb3v2.3 (antibody, V domains shown)
VH: B8 VH
VL: B8 VL with R34Q
notes: humanized IgG
B10: huAb3v2.8 (antibody, V domains shown)
VH: B8 VH with W54I
VL: B8 VL
notes: humanized IgG
B11: huAb3v2.9 (antibody, V domains shown)
VH: B8 VH with W54I
VL: B8 VL with R34Q
notes: humanized IgG
B12: huAb3v2 (antibody, V domains shown)
VH: B8 VH with W54D
VL: B8 VL with R34G
notes: humanized IgG
B13: chAb13-CZ (antibody, IgG1, V domains shown)
VH: DVQLQESGPDLVKPSQSLSLTCTVTGYSITSGYSWHWIRQFPGNKLEWMGYIHSSGSTNYNPSLKSRISINRDTSKNQFFLQLNSVTTEDTATYYCAGYDDYFEYWGQGTTLTVSS
VL: DIVMTQSQKFMSTSVGDRVSVTCKASQNVGFNVAWYQQKPGQSPKALIYSASYRYSGVPDRFTGSGSGTDFTLTISNVQSEDLAEYFCQQYNSYPFTFGSGTKLEIK
modifications: synthon CZ on reduced interchain Cys

What was measured:
Human full length B7-H3 [1] = molecular target: T1, Human full length B7-H3 (human, UniProt Q5ZPR3 29-534); experiment: cell-based or functional assay
T1 sequence: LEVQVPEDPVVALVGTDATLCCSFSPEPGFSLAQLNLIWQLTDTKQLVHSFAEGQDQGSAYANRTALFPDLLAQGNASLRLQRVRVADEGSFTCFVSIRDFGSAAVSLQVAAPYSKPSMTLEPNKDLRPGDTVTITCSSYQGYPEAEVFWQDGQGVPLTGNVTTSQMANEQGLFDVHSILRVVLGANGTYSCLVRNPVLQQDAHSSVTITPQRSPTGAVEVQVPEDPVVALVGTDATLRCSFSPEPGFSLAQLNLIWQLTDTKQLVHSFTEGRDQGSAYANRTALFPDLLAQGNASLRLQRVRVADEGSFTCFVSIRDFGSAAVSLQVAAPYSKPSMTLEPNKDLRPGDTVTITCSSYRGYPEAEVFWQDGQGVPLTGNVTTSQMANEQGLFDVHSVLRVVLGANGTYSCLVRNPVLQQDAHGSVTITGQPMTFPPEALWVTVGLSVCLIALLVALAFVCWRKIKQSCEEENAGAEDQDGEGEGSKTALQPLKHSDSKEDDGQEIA

[2] = molecular target: T2, Cynomolgous B7-H3 on cells (cynomolgus); experiment: FACS (Example 6 method)
T2 construct: whole, on cells; also called cyB7-H3; cyno B7-H3
Protocol: (§1) Cells were harvested from flasks when approximately 80% confluent using Gibco® Cell Dissociation Buffer. Cells were washed once in PBS/1% FBS (FACS buffer) then resuspended at 2.5×10⁶ cells/mL in FACS buffer. 100 μL of cells/well were added to a round bottom 96-well plate. 10 μL of a 10× concentration of mAb/ADC (final concentrations are indicated the figures). Wells were washed twice with FACS buffer and resuspended in 50 μL of secondary Ab (AlexaFluor 488) diluted in FACS buffer. The plate was incubated at 4° C. for one hour and washed twice with FACS buffer. Cells were resuspended in 100 μL of PBS/1% formaldehyde and analyzed on a Becton Dickinson LSRII flow cytometer. Data was analyzed using WinList flow cytometry analysis software.
(§2) Nine huAb13 variants described in Examples 17 and 18 were generated and tested for binding to B7-H3 by FACS (according to methods described in Example 6).

[3] = molecular target: T3, hB7-H3 (ELISA antigen of Tables 17 and 20) (human, UniProt Q5ZPR3 29-466, limits assumed); experiment: ELISA
T3 sequence: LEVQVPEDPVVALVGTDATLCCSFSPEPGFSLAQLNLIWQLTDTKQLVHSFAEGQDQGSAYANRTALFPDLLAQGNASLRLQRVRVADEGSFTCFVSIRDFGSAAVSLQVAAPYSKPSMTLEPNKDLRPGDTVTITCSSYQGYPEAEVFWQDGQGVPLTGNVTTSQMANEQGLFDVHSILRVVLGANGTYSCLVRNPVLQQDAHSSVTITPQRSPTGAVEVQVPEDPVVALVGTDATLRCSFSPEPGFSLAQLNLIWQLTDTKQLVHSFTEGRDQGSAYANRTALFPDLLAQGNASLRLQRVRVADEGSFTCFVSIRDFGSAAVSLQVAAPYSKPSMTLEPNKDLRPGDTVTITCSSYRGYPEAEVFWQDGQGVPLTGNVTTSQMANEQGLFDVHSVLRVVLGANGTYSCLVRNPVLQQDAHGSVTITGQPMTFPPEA

Human full length B7-H3 [4] = molecular target: T1, Human full length B7-H3; experiment: FACS
Human full length B7-H3 [5] = molecular target: T1, Human full length B7-H3; experiment: FACS (Example 6 method)
Protocol: as §1, §2

Human full length B7-H3 [6] = molecular target: T1, Human full length B7-H3; experiment: FACS, 3T12 transfectants
[7] = molecular target: T4, Human B7-H3-ECD (His tag) (human, UniProt Q5ZPR3 29-461); experiment: SPR Biacore, naked mAb
T4 construct: SPR analyte; also called huB7-H3; soluble ECD of human B7-H3
T4 sequence: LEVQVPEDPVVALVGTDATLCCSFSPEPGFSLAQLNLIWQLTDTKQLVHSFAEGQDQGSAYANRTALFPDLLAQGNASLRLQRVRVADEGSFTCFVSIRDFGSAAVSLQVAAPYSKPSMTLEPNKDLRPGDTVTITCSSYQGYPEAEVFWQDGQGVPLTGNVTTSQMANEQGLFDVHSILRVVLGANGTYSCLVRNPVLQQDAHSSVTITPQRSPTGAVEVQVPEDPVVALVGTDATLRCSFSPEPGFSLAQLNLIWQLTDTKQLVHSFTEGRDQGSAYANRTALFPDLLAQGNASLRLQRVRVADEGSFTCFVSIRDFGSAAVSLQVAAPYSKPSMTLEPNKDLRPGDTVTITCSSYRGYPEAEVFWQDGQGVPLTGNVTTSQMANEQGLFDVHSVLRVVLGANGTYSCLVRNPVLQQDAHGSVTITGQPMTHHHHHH
Excerpt: (§3) Biacore T200 SPR instruments were used to measure the binding kinetics of human B7-H3 (analyte) binding to various mAbs (ligands). The assay format was Fc-based capture via immobilized anti-mouse (Fc) (Pierce 31170) or immobilized anti-human (Fc) (Pierce 31125). A standard amine coupling protocol was employed to immobilize the capture reagents via primary amines to the carboxy-methyl (CM) dextran surface of CM5 sensorchips (Biacore); capture antibodies were coupled to a level of approximately 5000RU. For binding kinetic measurements the assay buffer was HBS-EP+ (Biacore): 10 mM Hepes, pH7.4, 150 mM NaCl, 3 mM EDTA, 0.05% polysorbate 20. During the assay, all measurements were referenced against the capture surface alone. Each assay cycle consisted of the following steps: 1) Capture of ligand to approximately 50RU; 2) Analyte injection over both reference and test surface, 240 μL at 80 μL/min, after which the dissociation was monitored for 900 seconds at 80 μL/min; 3) Regeneration of capture surface with low pH glycine. […] Data were processed and fit to a 1:1 binding model using Biacore T200 Evaluation Software to determine the binding kinetic rate constants, kₐ (on-rate) and kd (off-rate), and the equilibrium dissociation constant (affinity, KD).
These variants were further characterized for binding by SPR and as ADCs conjugated to the Bcl-xL inhibitor synthon (linker warhead) CZ. […] An ADC comprising chAb3 conjugated to synthon CZ was used as a control.

[8] = molecular target: T4, Human B7-H3-ECD (His tag); experiment: SPR Biacore, naked mAb; remark: listed apart in the source
Excerpt: as §3

Human full length B7-H3 [9] = molecular target: T1, Human full length B7-H3; experiment: FACS, cell surface human B7-H3 (as Example 6)
Protocol: as §1
Nine anti-B7-H3 chimeric antibodies were conjugated to the Bcl-xL inhibiting (Bcl-xLi) synthon CZ (Example 2.1) using conjugation Method A described below. The resulting ADCs (anti-B7-H3 antibodies conjugated to synthon CZ) were tested for binding to cell surface human B7-H3 by FACS (as described in Example 6) and for cell cytotoxicity in cell lines expressing B7-H3. […] Table 6 provides cell surface binding and cytotoxicity activity of anti-B7-H3 chimera ADCs against breast cancer cell HCC38 expressing human B7-H3.

Binder	EC50 [2] [nM]	EC50 [3] [nM]	binding result (Human full length B7-H3 [4])	binding result (Human full length B7-H3 [6])	other results
B1	10	0.12			EC50 nM H1650 (tumor cell cytotoxicity) (Human full length B7-H3 [1]): 0.18 nM
B2			no binding		
B3			no binding		
B4			no binding		
B5	10.6	0.19			EC50 (Human full length B7-H3 [5]): 5.21 nM
B6	12.9	0.14			EC50 (Human full length B7-H3 [5]): 5.83 nM
B7			no binding		
B8				binds	
B9				binds	
B10				binds	
B11				binds	
B12					Kd [7]: 0.69 nM; Kd [8]: 2.3 nM
B13	18.4	0.26			EC50 (Human full length B7-H3 [9]): 1.49 nM; EC50 (Human full length B7-H3 [5]): 6.27 nM
